Source: patent US20240261333A1 (published 2024)

Legend:
Assay in all cases: co-IP, anti-FLAG, lysate of cells with N-FLAG B3GNT2; mass spectrometry
PRBP1 = molecular target: T1, PRBP1 (human, UniProt P26599 1-557)
T1 construct: Label 'PRBP1' is probably a misprint of PTBP1; also called NP_002810.1 (+4)

DNAJC3 = molecular target: T2, DNAJC3 (human, UniProt Q13217 32-504)
T2 construct: also called NP_006251.1 (+4)
T2 sequence (looked up): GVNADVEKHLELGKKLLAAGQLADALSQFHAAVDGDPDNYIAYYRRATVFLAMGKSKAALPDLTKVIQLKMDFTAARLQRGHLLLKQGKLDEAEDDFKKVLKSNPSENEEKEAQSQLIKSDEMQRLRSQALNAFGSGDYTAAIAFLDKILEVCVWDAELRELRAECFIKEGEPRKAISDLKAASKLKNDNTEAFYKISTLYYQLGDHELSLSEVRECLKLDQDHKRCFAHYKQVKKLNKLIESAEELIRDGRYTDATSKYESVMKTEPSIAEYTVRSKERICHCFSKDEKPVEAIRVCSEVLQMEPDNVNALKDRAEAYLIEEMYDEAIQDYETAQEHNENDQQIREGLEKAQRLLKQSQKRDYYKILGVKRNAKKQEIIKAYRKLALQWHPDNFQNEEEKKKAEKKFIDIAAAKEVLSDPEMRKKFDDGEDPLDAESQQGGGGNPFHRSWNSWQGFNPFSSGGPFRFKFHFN

DDX5 = molecular target: T3, DDX5 (human, UniProt P17844 1-614)
T3 construct: also called NP_001307526.1
T3 sequence (P17844 whole entry): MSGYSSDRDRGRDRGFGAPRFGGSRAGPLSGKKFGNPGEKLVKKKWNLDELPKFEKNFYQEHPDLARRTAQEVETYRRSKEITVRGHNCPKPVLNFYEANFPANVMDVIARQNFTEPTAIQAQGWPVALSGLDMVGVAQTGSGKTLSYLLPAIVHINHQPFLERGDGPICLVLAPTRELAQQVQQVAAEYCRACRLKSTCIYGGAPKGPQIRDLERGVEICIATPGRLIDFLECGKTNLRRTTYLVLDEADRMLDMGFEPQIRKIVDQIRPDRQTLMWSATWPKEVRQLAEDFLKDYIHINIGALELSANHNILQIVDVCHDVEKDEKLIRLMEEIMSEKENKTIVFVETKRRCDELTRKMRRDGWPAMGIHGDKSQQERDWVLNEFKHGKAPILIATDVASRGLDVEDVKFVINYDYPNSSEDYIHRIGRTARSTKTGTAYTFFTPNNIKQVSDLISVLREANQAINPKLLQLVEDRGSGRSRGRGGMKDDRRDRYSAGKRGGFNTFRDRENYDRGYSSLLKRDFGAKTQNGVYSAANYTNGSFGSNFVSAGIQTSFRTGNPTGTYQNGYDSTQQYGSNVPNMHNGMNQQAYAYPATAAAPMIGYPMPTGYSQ

CSE1L = molecular target: T4, CSE1L (human, UniProt P55060-4 1-915, limits assumed)
T4 construct: also called NP_001243064.1 (+2)
T4 sequence (looked up): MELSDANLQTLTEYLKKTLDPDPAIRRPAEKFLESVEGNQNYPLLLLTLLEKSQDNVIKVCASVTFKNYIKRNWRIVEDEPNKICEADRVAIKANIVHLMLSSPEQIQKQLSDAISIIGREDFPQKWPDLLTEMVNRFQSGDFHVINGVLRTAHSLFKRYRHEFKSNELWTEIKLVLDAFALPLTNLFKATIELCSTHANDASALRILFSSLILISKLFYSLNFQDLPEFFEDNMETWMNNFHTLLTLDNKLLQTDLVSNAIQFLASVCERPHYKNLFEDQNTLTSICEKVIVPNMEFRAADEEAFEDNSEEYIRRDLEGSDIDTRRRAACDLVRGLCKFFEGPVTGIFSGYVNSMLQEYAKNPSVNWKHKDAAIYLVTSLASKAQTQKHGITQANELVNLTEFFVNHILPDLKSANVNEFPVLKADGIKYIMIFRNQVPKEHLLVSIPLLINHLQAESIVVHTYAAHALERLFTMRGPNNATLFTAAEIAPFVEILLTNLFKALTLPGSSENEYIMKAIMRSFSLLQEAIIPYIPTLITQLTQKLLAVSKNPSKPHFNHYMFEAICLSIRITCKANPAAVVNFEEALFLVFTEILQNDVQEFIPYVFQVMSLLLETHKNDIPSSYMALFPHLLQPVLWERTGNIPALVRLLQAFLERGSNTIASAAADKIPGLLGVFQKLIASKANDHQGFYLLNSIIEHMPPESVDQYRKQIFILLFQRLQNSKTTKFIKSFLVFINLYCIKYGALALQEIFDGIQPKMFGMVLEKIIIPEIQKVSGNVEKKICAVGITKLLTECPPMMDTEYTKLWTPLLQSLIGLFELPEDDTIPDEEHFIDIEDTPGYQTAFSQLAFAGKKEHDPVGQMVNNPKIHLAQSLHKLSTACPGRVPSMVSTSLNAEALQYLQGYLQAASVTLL

ARPC4 = ARPC4 (human, UniProt P59998 2-187)
HNRNPK = molecular target: T5, HNRNPK (human, UniProt P61978-3 1-440, limits assumed)
T5 construct: also called NP_001305115.1 (+1)
T5 sequence (P61978 other isoform, or with tags, fused parts or gaps limits assumed): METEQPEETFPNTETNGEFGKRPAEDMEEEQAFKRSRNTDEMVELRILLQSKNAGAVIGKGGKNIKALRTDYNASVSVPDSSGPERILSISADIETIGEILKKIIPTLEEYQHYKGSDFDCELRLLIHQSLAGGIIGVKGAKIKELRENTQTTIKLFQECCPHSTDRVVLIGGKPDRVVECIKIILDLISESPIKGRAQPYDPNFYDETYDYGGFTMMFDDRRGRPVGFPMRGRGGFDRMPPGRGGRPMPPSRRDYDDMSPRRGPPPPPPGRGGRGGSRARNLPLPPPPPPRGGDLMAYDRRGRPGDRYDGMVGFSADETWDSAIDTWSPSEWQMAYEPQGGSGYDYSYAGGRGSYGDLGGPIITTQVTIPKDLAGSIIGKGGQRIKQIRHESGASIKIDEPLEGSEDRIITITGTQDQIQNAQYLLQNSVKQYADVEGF

RPL4 = RPL4 (human, UniProt P36578 2-427)

T1 sequence (P26599 whole entry): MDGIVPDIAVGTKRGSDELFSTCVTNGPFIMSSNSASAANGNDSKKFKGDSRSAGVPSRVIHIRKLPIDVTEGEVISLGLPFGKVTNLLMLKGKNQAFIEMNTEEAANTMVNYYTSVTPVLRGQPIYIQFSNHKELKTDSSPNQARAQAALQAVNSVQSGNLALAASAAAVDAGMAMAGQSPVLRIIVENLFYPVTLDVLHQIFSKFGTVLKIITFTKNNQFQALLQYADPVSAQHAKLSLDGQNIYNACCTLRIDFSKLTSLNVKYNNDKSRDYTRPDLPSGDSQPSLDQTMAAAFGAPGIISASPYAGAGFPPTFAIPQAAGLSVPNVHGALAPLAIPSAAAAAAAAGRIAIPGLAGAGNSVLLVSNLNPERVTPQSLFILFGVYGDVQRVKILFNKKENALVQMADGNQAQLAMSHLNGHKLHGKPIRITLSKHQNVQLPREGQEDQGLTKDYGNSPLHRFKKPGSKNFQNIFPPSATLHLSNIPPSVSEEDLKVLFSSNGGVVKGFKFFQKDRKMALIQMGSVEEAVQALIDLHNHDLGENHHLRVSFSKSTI

co-IP mass spectrometry count (PRBP1): 6 | co-IP mass spectrometry count (DNAJC3): 0 | co-IP mass spectrometry count (DDX5): 16 | co-IP mass spectrometry count (CSE1L): 0 | co-IP mass spectrometry count (ARPC4): 0 | co-IP mass spectrometry count (HNRNPK): 9 | co-IP mass spectrometry count (RPL4): 15
B1: N-terminal FLAG tagged B3GNT2 (enzyme, human, UniProt Q9NY97 1-397, looked up)
chain: MSVGRRRIKLLGILMMANVFIYFIMEVSKSSSQEKNGKGEVIIPKEKFWKISTPPEAYWNREQEKLNRQYNPILSMLTNQTGEAGRLSNISHLNYCEPDLRVTSVVTGFNNLPDRFKDFLLYLRCRNYSLLIDQPDKCAKKPFLLLAIKSLTPHFARRQAIRESWGQESNAGNQTVVRVFLLGQTPPEDNHPDLSDMLKFESEKHQDILMWNYRDTFFNLSLKEVLFLRWVSTSCPDTEFVFKGDDDVFVNTHHILNYLNSLSKTKAKDLFIGDVIHNAGPHRDKKLKYYIPEVVYSGLYPPYAGGGGFLYSGHLALRLYHITDQVHLYPIDDVYTGMCLQKLGLVPEKHKGFRTFDIEEKNKNNICSYVDLMLVHSRKPQEMIDIWSQLQSAHLKC
notes: Overexpressed in cells and pulled down from the lysate with mouse anti-FLAG antibody; also called N-FLAG B3GNT2; N-term FLAG; not shown: N-terminal FLAG tag
